Results as given in patent US20180222961A1 (IMMATICS BIOTECHNOLOGIES, published 2018).

Columns and labels:
[1] = molecular target: T1, HLA-B*44:02 (human); assay: UV-exchange b2m ELISA; exchange-yield grade
T1 construct: also called peptide-receptive MHC molecules
Method in brief: (§1)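 Absorbance at 450 nm after HRP anti-β2m detection gives the yield of UV-mediated ligand exchange, quantified against HLA-A*02:01/MLA-001 monomer standards. Only peptides that bind and stabilise peptide-receptive MHC keep the complex intact after UV cleavage of the conditional ligand.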

[2] = molecular target: T2, HLA-A*03:01 (human); assay: UV-exchange b2m ELISA; exchange-yield grade
T2 construct: also called peptide-receptive MHC molecules
Method in brief: as §1

B1: LEAQQEAL (peptide)
peptide: LEAQQEAL
peptide exchange yield [1]: 20 to 50%

B2: KSLIKSWKK (peptide)
peptide: KSLIKSWKK
peptide exchange yield [2]: 20 to 50%

B3: VVHAVFALK (peptide)
peptide: VVHAVFALK
peptide exchange yield [2]: 50 to 75%

B4: REAGDEFELRY (peptide)
peptide: REAGDEFELRY
peptide exchange yield [1]: 20 to 50%

B5: AEATARLNVF (peptide)
peptide: AEATARLNVF
binding result [1]: binds

B6: SLKERNPLK (peptide)
peptide: SLKERNPLK
peptide exchange yield [2]: 20 to 50%

B7: AVRKPIVLK (peptide)
peptide: AVRKPIVLK
peptide exchange yield [2]: 50 to 75%

B8: YEKGIMQKV (peptide)
peptide: YEKGIMQKV
peptide exchange yield [1]: 20 to 50%

B9: QSMYYPLQLK (peptide)
peptide: QSMYYPLQLK
peptide exchange yield [2]: 20 to 50%

B10: GEMEQKQL (peptide)
peptide: GEMEQKQL
peptide exchange yield [1]: 20 to 50%

B11: TVAPPQGVVK (peptide)
peptide: TVAPPQGVVK
peptide exchange yield [2]: 20 to 50%

B12: STTFPTLTK (peptide)
peptide: STTFPTLTK
peptide exchange yield [2]: 20 to 50%

B13: AVAPPTPASK (peptide)
peptide: AVAPPTPASK
peptide exchange yield [2]: 20 to 50%

B14: VSKTTGMEF (peptide)
peptide: VSKTTGMEF
peptide exchange yield [2]: 10 to 20%

B15: MEHPGKLLF (peptide)
peptide: MEHPGKLLF
binding result [1]: binds

B16: AEFLLRIFL (peptide)
peptide: AEFLLRIFL
peptide exchange yield [1]: 20 to 50%

B17: RSLRYYYEK (peptide)
peptide: RSLRYYYEK
peptide exchange yield [2]: 20 to 50%

B18: AERQPGAASL (peptide)
peptide: AERQPGAASL
peptide exchange yield [1]: 20 to 50%

B19: KVVDRWNEK (peptide)
peptide: KVVDRWNEK
peptide exchange yield [2]: 20 to 50%

B20: GTVNPTVGK (peptide)
peptide: GTVNPTVGK
peptide exchange yield [2]: 20 to 50%

B21: YEVARILNL (peptide)
peptide: YEVARILNL
peptide exchange yield [1]: 20 to 50%

B22: RVNAIPFTY (peptide)
peptide: RVNAIPFTY
peptide exchange yield [2]: 50 to 75%

B23: SMYYPLQLK (peptide)
peptide: SMYYPLQLK
peptide exchange yield [2]: 50 to 75%

B24: KTFPASTVF (peptide)
peptide: KTFPASTVF
peptide exchange yield [2]: 10 to 20%

B25: GEGPKTSW (peptide)
peptide: GEGPKTSW
peptide exchange yield [1]: 20 to 50%

B26: NLSSITHER (peptide)
peptide: NLSSITHER
peptide exchange yield [2]: 20 to 50%

B27: REAGDEFEL (peptide)
peptide: REAGDEFEL
peptide exchange yield [1]: 20 to 50%

B28: REGPEEPGL (peptide)
peptide: REGPEEPGL
peptide exchange yield [1]: 20 to 50%

B29: KEFLFNMY (peptide)
peptide: KEFLFNMY
peptide exchange yield [1]: 20 to 50%

B30: VVLLGSLFSRK (peptide)
peptide: VVLLGSLFSRK
peptide exchange yield [2]: 20 to 50%

B31: RQPERTILRPR (peptide)
peptide: RQPERTILRPR
peptide exchange yield [2]: 20 to 50%

B32: RMFADDLHNLNK (peptide)
peptide: RMFADDLHNLNK
peptide exchange yield [2]: 50 to 75%

B33: KTYETNLEIKK (peptide)
peptide: KTYETNLEIKK
peptide exchange yield [2]: 50 to 75%

B34: SVSGVKTTF (peptide)
peptide: SVSGVKTTF
peptide exchange yield [2]: 20 to 50%

B35: TTALKTTSR (peptide)
peptide: TTALKTTSR
peptide exchange yield [2]: 10 to 20%

B36: RAKELEATF (peptide)
peptide: RAKELEATF
peptide exchange yield [2]: 10 to 20%

B37: KEVDPTSHSY (peptide)
peptide: KEVDPTSHSY
peptide exchange yield [1]: 20 to 50%

B38: GTSPPSVEK (peptide)
peptide: GTSPPSVEK
peptide exchange yield [2]: 20 to 50%

B39: IVQEPTEEK (peptide)
peptide: IVQEPTEEK
peptide exchange yield [2]: 20 to 50%

B40: RRIHTGEKPYK (peptide)
peptide: RRIHTGEKPYK
peptide exchange yield [2]: 20 to 50%

B41: SVSSETTKIKR (peptide)
peptide: SVSSETTKIKR
peptide exchange yield [2]: 20 to 50%

B42: LLQPPPLLAR (peptide)
peptide: LLQPPPLLAR
peptide exchange yield [2]: 20 to 50%

B43: VLLGSLFSRK (peptide)
peptide: VLLGSLFSRK
peptide exchange yield [2]: 20 to 50%

B44: AEIEPKADG (peptide)
peptide: AEIEPKADG
peptide exchange yield [1]: 20 to 50%

B45: RMASPVNVK (peptide)
peptide: RMASPVNVK
peptide exchange yield [2]: > 75%

B46: KVAGERYVYK (peptide)
peptide: KVAGERYVYK
peptide exchange yield [2]: 50 to 75%

B47: ALEVAHRLK (peptide)
peptide: ALEVAHRLK
peptide exchange yield [2]: 20 to 50%

B48: KLQPAQTAAK (peptide)
peptide: KLQPAQTAAK
peptide exchange yield [2]: 20 to 50%

B49: RISEYLLEK (peptide)
peptide: RISEYLLEK
peptide exchange yield [2]: 20 to 50%

B50: VLYGPAGLGK (peptide)
peptide: VLYGPAGLGK
peptide exchange yield [2]: 50 to 75%

B51: GMMKGGIRK (peptide)
peptide: GMMKGGIRK
peptide exchange yield [2]: 50 to 75%

B52: KILEEHTNK (peptide)
peptide: KILEEHTNK
peptide exchange yield [2]: 20 to 50%

B53: RVAELLLLH (peptide)
peptide: RVAELLLLH
peptide exchange yield [2]: 20 to 50%

B54: ATFERVLLR (peptide)
peptide: ATFERVLLR
peptide exchange yield [2]: 50 to 75%
